Molecular target: T1, FtsH with a C-terminal FLAG epitope (chromosomally encoded) (E. coli, UniProt P0AAI3 1-644)
T1 construct: FtsH, E. coli BL21(DE3), product of the chromosomal ftsH gene with a tag appended to its C-terminus; residues 31-97 (periplasmic domain) are modelled in PDB 9CZ2; Homohexamer; one or two hexamers per HflK/C assembly; also called FtsH-FLAG (C-terminal); tagged FtsH; source: E. coli BL21(DE3), chromosomal ftsH locus modified (no overproduction); anti-FLAG M2 resin from membranes solubilised with …
Experiment: co-IP; anti-FLAG M2 resin on solubilised membranes of E. coli with chromosomally FLAG-tagged FtsH (1% DDM or 2% GDN; also detergent-free with Carboxy-DIBMA), eluted with FLAG peptide; no overproduction
Details: partners not purified

T1 sequence (P0AAI3 whole entry, the tested form may be a part): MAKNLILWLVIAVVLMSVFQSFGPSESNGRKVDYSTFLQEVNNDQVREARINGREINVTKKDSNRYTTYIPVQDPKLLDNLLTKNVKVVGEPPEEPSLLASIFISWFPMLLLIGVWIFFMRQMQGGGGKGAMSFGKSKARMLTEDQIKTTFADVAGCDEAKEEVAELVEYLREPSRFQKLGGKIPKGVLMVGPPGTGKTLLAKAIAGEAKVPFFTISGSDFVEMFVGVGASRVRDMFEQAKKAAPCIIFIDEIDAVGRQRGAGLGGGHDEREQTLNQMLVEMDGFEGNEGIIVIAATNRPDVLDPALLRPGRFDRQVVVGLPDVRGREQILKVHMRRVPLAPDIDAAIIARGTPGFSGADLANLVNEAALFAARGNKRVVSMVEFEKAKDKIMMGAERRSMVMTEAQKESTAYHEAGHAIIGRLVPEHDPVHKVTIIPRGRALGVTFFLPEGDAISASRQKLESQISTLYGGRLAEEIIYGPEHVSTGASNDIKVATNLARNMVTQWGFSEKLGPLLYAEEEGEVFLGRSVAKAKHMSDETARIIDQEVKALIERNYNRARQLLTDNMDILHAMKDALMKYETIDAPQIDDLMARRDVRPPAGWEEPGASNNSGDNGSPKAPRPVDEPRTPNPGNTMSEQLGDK

binding result: binds
B1: HflK (endogenous) (natural protein, E. coli (endogenous in BL21(DE3)), UniProt P0ABC7 1-419, looked up)
chain: MAWNQPGNNGQDRDPWGSSKPGGNSEGNGNKGGRDQGPPDLDDIFRKLSKKLGGLGGGKGTGSGGGSSSQGPRPQLGGRVVTIAAAAIVIIWAASGFYTIKEAERGVVTRFGKFSHLVEPGLNWKPTFIDEVKPVNVEAVRELAASGVMLTSDENVVRVEMNVQYRVTNPEKYLYSVTSPDDSLRQATDSALRGVIGKYTMDRILTEGRTVIRSDTQRELEETIRPYDMGITLLDVNFQAARPPEEVKAAFDDAIAARENEQQYIREAEAYTNEVQPRANGQAQRILEEARAYKAQTILEAQGEVARFAKLLPEYKAAPEITRERLYIETMEKVLGNTRKVLVNDKGGNLMVLPLDQMLKGGNAPAAKSDNGASNLLRLPPASSSTTSGASNTSSTSQGDIMDQRRANAQRNDYQRQGE
notes: HflK, E. coli BL21(DE3), SPFH-domain protein; residues 79-355 modelled for most subunits in PDB 9CZ2; 24 alternating HflK and HflC subunits form the nautilus-like assembly; also called HflK/C subunit; source: endogenous, E. coli BL21(DE3), co-purified with FtsH-FLAG on anti-FLAG resin
